From paper PMC8615749, “Human Parainfluenza Virus 3 Phosphoprotein Is a Tetramer and Shares Structural and Interaction Features with Ebola Phosphoprotein VP35” (Biomolecules, 2021)

Assays:
[1] = biological target: T1, LC8 (DYNLL1), recombinant (human, UniProt P63167 1-89); assay: ITC; conditions: both partners purified
T1 construct: also called human LC8

SEC-MALS = biological target: the molecule itself; assay: SEC-MALS

T1 sequence (P63167 whole entry): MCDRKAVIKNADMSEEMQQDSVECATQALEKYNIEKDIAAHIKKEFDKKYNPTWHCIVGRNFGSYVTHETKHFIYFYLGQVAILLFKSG

B1: PMDL, recombinant construct of the human parainfluenza virus 3 phosphoprotein (HPIV3 P): short P_TAI (domain or fragment)
chain: SDHKPTSKGQKKISKTTTTNTDTKGQTETQTESSETQSNVDTASKIDFLAGLVIGVSMDNDTKLIQIQNEMLNLKADLKRMDESHRRLIENQREQLSLITSLISNLKIMT
notes: source: E. coli Rosetta DE3, purified (TALON His-Tag resin, SEC Superdex 75)
In the case of B1, the Kd [1] is reported as ~50 µM and the “stoichiometry N” value (SEC-MALS) is reported as 4.

B2: Zaire Ebolavirus (EBOV) phosphoprotein VP35, construct of residues 65-145 (LC8 anchor 65-82 and mult (domain or fragment)
chain: NPKTRNSQTQTDPICNHSFEEVVQTLASLATVVQQQTIASESLEQRITSLENGLKPVYDMAKTISSLNRVCAEMVAKYDLL
notes: also called VP35 65-145; EBOV VP35 65-145
B2 was tested, and the Kd [1] was 0.13 µM and the “stoichiometry N” value (SEC-MALS) was 4.
